Source: doi:10.1101/2021.02.02.429374 (bioRxiv, 2021)

Molecular target: yeast microtubules (assembled from tubulin purified from yeast, Tub1/Tub2-6His) (yeast, UniProt P09733 1-447; P02557 1-457)
Test: TIRF microscopy-based microtubule-binding assay

Sequence of yeast microtubules (assembled from tubulin purified from yeast, Tub1/Tub2-6His) (P09733 whole entry, chain 1 of 2): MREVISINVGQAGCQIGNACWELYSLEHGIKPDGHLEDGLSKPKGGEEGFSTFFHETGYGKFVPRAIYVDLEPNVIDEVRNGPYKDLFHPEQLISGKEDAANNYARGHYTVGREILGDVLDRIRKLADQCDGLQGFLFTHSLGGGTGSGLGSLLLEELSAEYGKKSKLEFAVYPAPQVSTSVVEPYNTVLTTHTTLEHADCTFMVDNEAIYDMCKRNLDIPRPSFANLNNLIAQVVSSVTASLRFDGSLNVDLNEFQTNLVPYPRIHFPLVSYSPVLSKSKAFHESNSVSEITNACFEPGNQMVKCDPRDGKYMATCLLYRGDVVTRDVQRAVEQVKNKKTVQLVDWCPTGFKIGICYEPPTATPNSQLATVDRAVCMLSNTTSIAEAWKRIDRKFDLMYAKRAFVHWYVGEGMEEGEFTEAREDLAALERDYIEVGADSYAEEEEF
Sequence of yeast microtubules (assembled from tubulin purified from yeast, Tub1/Tub2-6His) (P02557 whole entry, chain 2 of 2): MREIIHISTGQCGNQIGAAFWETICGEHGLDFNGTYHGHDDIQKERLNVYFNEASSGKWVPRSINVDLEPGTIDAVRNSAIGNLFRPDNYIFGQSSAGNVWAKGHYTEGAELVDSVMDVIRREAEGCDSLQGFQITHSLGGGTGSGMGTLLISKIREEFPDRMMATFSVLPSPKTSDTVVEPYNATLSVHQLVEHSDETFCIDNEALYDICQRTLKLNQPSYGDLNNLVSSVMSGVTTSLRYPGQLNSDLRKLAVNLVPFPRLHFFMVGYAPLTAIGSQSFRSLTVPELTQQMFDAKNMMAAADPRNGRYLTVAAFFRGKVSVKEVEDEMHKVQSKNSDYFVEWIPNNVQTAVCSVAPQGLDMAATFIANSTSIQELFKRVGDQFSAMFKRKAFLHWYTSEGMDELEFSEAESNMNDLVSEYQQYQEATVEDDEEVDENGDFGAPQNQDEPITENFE

Row | Kd [nM] | Binder
1 | 854 | She1-HaloTag^TMR (wild-type She1) (natural protein, budding yeast, UniProt P38200 1-338, looked up, HaloTag-TMR ligand on the HaloTag) MNDKLQEEHNEKDTTSQINGFTPPHMSIDFHSNNNSNIIETIGVSKRLGNSVLSELDSRASSKFEFLKDQSEQQYNGDKNNEPKSGSYNINEFFQAKHDSQFGQMESLDTHYTLLHTPKRKSQHAIPQDRSDSMKRSRPSRSIPYTTPVVNDITRRIRRLKLRNSLVNGNDIVARARSMQANSNINSIKNTPLSKPKPFMHKPNFLMPTTNSLNKINSAHRNTSSSSTASSIPRSKVHRSISIRDLHAKTKPVERTPVAQGTNSQLKNSVSVFDRLYKQTTFSRSTSMNNLSSGTSAKSKEHTNVKTRLVKSKTSGSLSSNLKQSTATGTKSDRPIWR
2 | 806 | She1-NLS^SV40-HaloTag (other, HaloTag-TMR ligand on the HaloTag) MNDKLQEEHNEKDTTSQINGFTPPHMSIDFHSNNNSNIIETIGVSKRLGNSVLSELDSRASSKFEFLKDQSEQQYNGDKNNEPKSGSYNINEFFQAKHDSQFGQMESLDTHYTLLHTPKRKSQHAIPQDRSDSMKRSRPSRSIPYTTPVVNDITRRIRRLKLRNSLVNGNDIVARARSMQANSNINSIKNTPLSKPKPFMHKPNFLMPTTNSLNKINSAHRNTSSSSTASSIPRSKVHRSISIRDLHAKTKPVERTPVAQGTNSQLKNSVSVFDRLYKQTTFSRSTSMNNLSSGTSAKSKEHTNVKTRLVKSKTSGSLSSNLKQSTATGTKSDRPIWRGSGSAAAPKKKRKVG
